# Laboratory results: publication PMC11323482, “Role of the antiparallel double-stranded filament form of FtsA in activating the Escherichia coli divisome” (mBio, 2024)
# Assays:
# [1] = target: the molecule itself; assay: cross-linking; in vivo site-specific cysteine crosslinking in E. coli cells with BMB or BMH (0.5 mM, 10 min, cold PBS), quenched with beta-mercaptoethanol; SDS-PAGE and immunoblot with anti-FtsA; dividing cells: ftsZ84(ts) strains 10 and 20 min after return to 30 °C, ftsQ1ts and zipA1ts at 30 °C, ftsA° strain at 30 or 42 °C, WM4952 at 37 °C, WM4953
# [2] = target: the molecule itself; assay: cross-linking; in vivo cysteine crosslinking in ftsQ1(ts) cells (WM7148) shifted to the nonpermissive 42 °C, compared with 30 °C; SDS-PAGE and anti-FtsA immunoblot
# [3] = target: the molecule itself; assay: cross-linking; in vivo cysteine crosslinking in zipA1(ts) cells (WM7149) shifted to the nonpermissive 42 °C, compared with 30 °C; SDS-PAGE and anti-FtsA immunoblot
Protein,"DS filament crosslinking at Q155C, percent of WT levels [1] [%]",fold decrease of the crosslinked band's intensity at 42 °C against 30 °C [2] [fold],fold decrease of the crosslinked band's intensity at 42 °C against 30 °C [3] [fold]
"FtsA^M71A with Q155C (natural protein, E. coli, UniProt P0ABH0 1-420, looked up, FtsA, E. coli, M71A, measured by crosslinking at Q155C; M71A introduced into pWM7049 or pWM7239; source: E. coli, expressed from plasmid, in living cells) MIKATDRKLVVGLEIGTAKVAALVGEVLPDGMVNIIGVGSCPSRGMDKGGVNDLESVVKCVQRAIDQAELAADCQISSVYLALSGKHISCQNEIGMVPISEEEVTQEDVENVVHTAKSVRVRDEHRVLHVIPQEYAIDYQEGIKNPVGLSGVRMCAKVHLITCHNDMAKNIVKAVERCGLKVDQLIFAGLASSYSVLTEDERELGVCVVDIGGGTMDIAVYTGGALRHTKVIPYAGNVVTSDIAYAFGTPPSDAEAIKVRHGCALGSIVGKDESVEVPSVGGRPPRSLQRQTLAEVIEPRYTELLNLVNEEILQLQEKLRQQGVKHHLAAGIVLTGGAAQIEGLAACAQRVFHTQVRIGAPLNITGLTDYAQEPYYSTAVGLLHYGKESHLNGEAEVEKRVTASVGSWIKRLNSWLRKEF",~35,,
"FLAG-FtsA^Q155C (natural protein, E. coli, UniProt P0ABH0 1-420, looked up, FtsA, E. coli, with the cysteine substitution Q155C; made by site-directed mutagenesis on pWM2785 (pDSW210-FLAG-FtsA); Native FtsA is also present in some strains; also called pDSW210-FLAG-FtsA^Q155C; source: E. coli, expressed from plasmid pDSW210 (IPTG), in living cells; not shown: FLAG, N-terminal, kept) MIKATDRKLVVGLEIGTAKVAALVGEVLPDGMVNIIGVGSCPSRGMDKGGVNDLESVVKCVQRAIDQAELMADCQISSVYLALSGKHISCQNEIGMVPISEEEVTQEDVENVVHTAKSVRVRDEHRVLHVIPQEYAIDYQEGIKNPVGLSGVRMCAKVHLITCHNDMAKNIVKAVERCGLKVDQLIFAGLASSYSVLTEDERELGVCVVDIGGGTMDIAVYTGGALRHTKVIPYAGNVVTSDIAYAFGTPPSDAEAIKVRHGCALGSIVGKDESVEVPSVGGRPPRSLQRQTLAEVIEPRYTELLNLVNEEILQLQEKLRQQGVKHHLAAGIVLTGGAAQIEGLAACAQRVFHTQVRIGAPLNITGLTDYAQEPYYSTAVGLLHYGKESHLNGEAEVEKRVTASVGSWIKRLNSWLRKEF",,3,7.5
